Data: the supplement of paper PMC10899765

Key:
Details in all cases: 20 nM; 72 h
MCF10A [1] = assay: 5+ nucleoli phenotype percent effect (relative to siNT 0% and siKIF11 100%); higher = more cells with five or more nucleoli
Method: (§1)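 After 72 h, cells were fixed and stained with Hoechst and anti-fibrillarin, and nucleoli per nucleus were counted with CellProfiler. Values are plate-adjusted percent effect for the one-nucleolus and 5+ nucleoli phenotypes, normalised to siNT (0%) and to the positive controls siNOL11 or siKIF11 (100%), as the mean of biological triplicates. Percent viability is the nuclei count relative to siNT.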

MCF10A [2] = assay: one-nucleolus phenotype percent effect (relative to siNT 0% and siNOL11 100%); higher = more cells with one nucleolus (ribosome biogenesis inhibition)
Method: as §1

MCF10A [3] = assay: percent viability (nuclei count relative to siNT); higher = more viable cells
Method: as §1

| Sequence | 5+ nucleoli phenotype percent effect (MCF10A [1]) | one-nucleolus phenotype percent effect (MCF10A [2]) | percent viability (MCF10A [3]) |
| --- | --- | --- | --- |
| AGGUCUGCAUUCAAAUCCCCAGA [hsa-miR-6503-5p] | 10.7% | 3.05% | 43.4% |
| UAAAUUUCACCUUUCUGAGAAGG [hsa-miR-513a-3p] | -3.52% | 18% | 49% |
| AGGAGGGAGGAGAUGGGCCAAGUU [hsa-miR-1249-5p] | -22.4% | 45.9% | 11.3% |
| UUGUCUCUUGUUCCUCACACAG [hsa-miR-6818-3p] | 16.4% | -11.1% | 57.7% |
| UGAGGGGCCUCAGACCGAGCUUUU [hsa-miR-3184-5p] | 38.7% | 5.35% | 31.2% |
| GUGAGGCGGGGCCAGGAGGGUGUGU [hsa-miR-6765-5p] | 16% | -21.4% | 72.9% |
| CAUAGCCCGGUCGCUGGUACAUGA [hsa-miR-3651] | -7.1% | 17.1% | 70% |
| CGGGGUGGGUGAGGUCGGGC [hsa-miR-4651] | -1.6% | 2.27% | 33.5% |
| UUGGGCCCAGGAGUAAACAGGAU [hsa-miR-6773-5p] | -4.65% | -0.04% | 40.3% |
| UUCCUGGGCUUCUCCUCUGUAG [hsa-miR-6783-3p] | 7.93% | -1.45% | 88.9% |
| CCACGUGCUUCUCUUUCCGCAG [hsa-miR-6767-3p] | -26% | 13.2% | 69% |
| CCCAGCAGGACGGGAGCG [hsa-miR-4530] | 43.3% | -26.2% | 111% |
| CAAAAGUGAUCGUGGUUUUUG [hsa-miR-548t-5p] | 9.99% | -10.3% | 51.5% |
| UUGAAGAGGAGGUGCUCUGUAGC [hsa-miR-4709-3p] | -33% | 29.5% | 28% |
| AGGAUAGGAAGAAUGAAGUGCU [hsa-miR-5191] | -7.65% | 14.1% | 40.6% |
| AGUGGCAAAGUCUUUCCAUAU [hsa-miR-3688-5p] | -15.4% | 16% | 31.6% |
| UUAUAAUACAACCUGAUAAGUG [hsa-miR-374a-5p] | 26.1% | -14.4% | 100% |
| UGGGAACUUAGUAGAGGUUUAA [hsa-miR-4471] | 7.89% | 5.31% | 26.7% |
| UCUAGGCUGGUACUGCUGA [hsa-miR-645] | 7.45% | -11.5% | 59.5% |
| GCUAAGGAAGUCCUGUGCUCAG [hsa-miR-4521] | 34.9% | -19.3% | 83.7% |

| Sequence | 5+ nucleoli phenotype percent effect (MCF10A [1]) | one-nucleolus phenotype percent effect (MCF10A [2]) | percent viability (MCF10A [3]) |
| --- | --- | --- | --- |
| GGGUCCCGGGGAGGGGGG [hsa-miR-4281] | 25.6% | -17.2% | 100% |
| UGUGAUAUCAUGGUUCCUGGGA [hsa-miR-3689e] | -30.6% | 4.57% | 30.9% |
| CUGCCAUGUCUAAGAAGAAAAC [hsa-miR-4659a-5p] | -0.515% | -12.3% | 68.5% |
| UCUGAGAGAGCUCGAUGGCAG [hsa-miR-6761-5p] | 9.71% | -17.3% | 56.8% |
| ACAAAGUGCUUCCCUUUAGAGUGU [hsa-miR-520g] | 24.4% | -7.99% | 77.4% |
| UAUACAAGGGCAGACUCUCUCU [hsa-miR-300] | -6.47% | -10.6% | 68.9% |
| AGGACCUGCGGGACAAGAUUCUU [hsa-miR-492] | -18.8% | 9.32% | 49% |
| UAUGGAAAGACUUUGCCACUCU [hsa-miR-3688-3p] | 57.1% | -10.8% | 54% |
| UCGAGGAGCUCACAGUCUAGU [hsa-miR-151a-5p] | 9.84% | -6% | 86.8% |
| GAACGCGCUUCCCUAUAGAGGGU [hsa-miR-523-3p] | 23.3% | -18.2% | 119% |
| UCUGGUAUGUAGUAGGUAAUAA [hsa-miR-4774-5p] | 80.9% | -25.6% | 62.8% |
| AAAGACAUAGUUGCAAGAUGGG [hsa-miR-3617-5p] | 37.2% | -28.6% | 188% |
| UACAUGGAUGGAAACCUUCAAGC [hsa-miR-4802-3p] | -3.05% | -8.74% | 70.6% |
| AGCCUUCCAGGAGAAAUGGAGA [hsa-miR-5581-5p] | -16.7% | 20.5% | 14.3% |
| GUGAGUAGUGGCGCGCGGCGGC [hsa-miR-6869-5p] | -16.7% | 12.6% | 32.4% |
| UCCUCUUCUCCCUCCUCCCAG [hsa-miR-877-3p] | -15.4% | 6.33% | 59% |
| CCUCUGAAAUUCAGUUCUUCAG [hsa-miR-146a-3p] | 27.1% | -13.5% | 125% |
| AGUUAAUGAAUCCUGGAAAGU [hsa-miR-569] | -15.9% | 10.3% | 90.6% |
| AGAAGGAAAUUGAAUUCAUUUA [hsa-miR-1252] | 32.3% | -13.6% | 148% |
| CUCCGUUUGCCUGUUUCGCUG [hsa-miR-1468] | 30.4% | -8.9% | 112% |

| Sequence | 5+ nucleoli phenotype percent effect (MCF10A [1]) | one-nucleolus phenotype percent effect (MCF10A [2]) | percent viability (MCF10A [3]) |
| --- | --- | --- | --- |
| GGUGGUUGAGGCUGCAGUAAGU [hsa-miR-1273g-5p] | 22.4% | -13.4% | 49.2% |
| GGUAGAUUUUCCUUCUAUGGU [hsa-miR-376a-2-5p] | 62% | -26.7% | 71.5% |
| ACCGUCUCUUCUGUUCCCCAG [hsa-miR-6827-3p] | -12.7% | 16.9% | 64.6% |
| CAAUUCUCAAAGGAGCCUCCC [hsa-miR-5571-5p] | -26.3% | 34% | 32.7% |
| UCCGGUUCUCAGGGCUCCACC [hsa-miR-671-3p] | -33.5% | 54.3% | 15.2% |
| UGCGGCCGGUGCUCAACCUGC [hsa-miR-1199-3p] | -6.68% | 23.8% | 22.1% |
| GGAGAAAUUAUCCUUGGUGUGU [hsa-miR-539-5p] | 17.9% | -14.8% | 55.7% |
| GUGGAGUCCUGGGGAAUGGAGA [hsa-miR-3198] | -28.7% | 22% | 25.5% |
| CAUCAGAAUUCAUGGAGGCUAG [hsa-miR-2115-3p] | -5.23% | 15.3% | 39% |
| AAGUGCUUCCUUUUAGAGGGUU [hsa-miR-520f] | 26.9% | 4.79% | 46.9% |
| AGGCUGGGCUGGGACGGA [hsa-miR-4505] | 21.9% | 32.2% | 12.3% |
| UUAGACCUAGUACACGUCCUU [hsa-miR-3684] | 16.1% | -19.2% | 85.2% |
| AACUAGUAAUGUUGGAUUAGGG [hsa-miR-3923] | -20.8% | 43.2% | 21.9% |
| UAGCAGCACAGAAAUAUUGGC [hsa-miR-195-5p] | -10.1% | 13.4% | 26.4% |
| GGGACCAUCCUGCCUGCUGUGG [hsa-miR-3619-3p] | 20.9% | -10.4% | 44.4% |
| UCUCAGUAAGUGGCACUCUGU [hsa-miR-4797-3p] | -38.9% | 57.2% | 47.4% |
| UAUACAAGGGCAAGCUCUCUGU [hsa-miR-381-3p] | 3.97% | -13.7% | 90.7% |
| AUCAAGGAUCUUAAACUUUGCC [hsa-miR-561-5p] | -9.66% | 5.64% | 38.8% |
| CGGGGAGAGAACGCAGUGACGU [hsa-miR-3175] | -3.98% | 5.01% | 33.4% |
